B1: SH3 and PX domain-containing protein 2B, residues 155 to 209; numbered along this chain, A1X283 (parent)
chain: EQYVVVANYQKQESSEISLSVGQVVDIIEKNESGWWFVSTAEEQGWVPATCLEGQ

± gives the uncertainty stated by the source.

In this data set the parent is B1. Nature of the data set: abundance fitness (aPCA) (normalised: wild type 0, dead -1); higher = more abundant; growth selection in yeast, the domain comes from the species named. To be noted: Homo sapiens.
With EQYVVVANYQKQEYSEISLSVGQVVDIIEKNESGWWFVSTAEEQGWVPATCLEGQ [S14Y], the abundance fitness was -0.073 ± 0.13.

For the variant EQYVVVANYQKQETSEISLSVGQVVDIIEKNESGWWFVSTAEEQGWVPATCLEGQ [S14T], the abundance fitness is -0.036 ± 0.087.

As for EQYVVVANYQKQEWSEISLSVGQVVDIIEKNESGWWFVSTAEEQGWVPATCLEGQ [S14W], the abundance fitness is -0.171 ± 0.1.

EQYVVVANYQKQEVSEISLSVGQVVDIIEKNESGWWFVSTAEEQGWVPATCLEGQ [S14V]: the abundance fitness came to 0.014 ± 0.086.

On to EQYVVVANYQKQESSEISLWVGQVVDIIEKNESGWWFVSTAEEQGWVPATCLEGQ [S20W], for which the abundance fitness was -0.165 ± 0.12.

EQYVVVANYQKQESSEISLHVGQVVDIIEKNESGWWFVSTAEEQGWVPATCLEGQ [S20H]: the abundance fitness is -0.01 ± 0.13.

Regarding EQYVVVANYQKQESSEISLLVGQVVDIIEKNESGWWFVSTAEEQGWVPATCLEGQ [S20L], the abundance fitness amounted to 0.015 ± 0.077.

Take EQYVVVANYQKQESSEISLCVGQVVDIIEKNESGWWFVSTAEEQGWVPATCLEGQ [S20C]: the abundance fitness was -0.209 ± 0.11.

On to EQYVVVANYQKQESSEISLTVGQVVDIIEKNESGWWFVSTAEEQGWVPATCLEGQ [S20T], for which the abundance fitness was -0.055 ± 0.11.

Take EQYVVVANYQKQESSEISLKVGQVVDIIEKNESGWWFVSTAEEQGWVPATCLEGQ [S20K]: the abundance fitness is -0.075 ± 0.11.

Turning to EQYVVVANYQKQESSEISLDVGQVVDIIEKNESGWWFVSTAEEQGWVPATCLEGQ [S20D], the abundance fitness was -0.317 ± 0.16.

EQYVVVANYQKQESSEISLQVGQVVDIIEKNESGWWFVSTAEEQGWVPATCLEGQ [S20Q]: the abundance fitness was -0.126 ± 0.17.

As for EQYVVVANYQKQESSEISLRVGQVVDIIEKNESGWWFVSTAEEQGWVPATCLEGQ [S20R], the abundance fitness is -0.082 ± 0.074.

With EQYVVVANYQKQESSEISLVVGQVVDIIEKNESGWWFVSTAEEQGWVPATCLEGQ [S20V], the abundance fitness was -0.077 ± 0.079.

Take EQYVVVANYQKQESSEISLGVGQVVDIIEKNESGWWFVSTAEEQGWVPATCLEGQ [S20G]: the abundance fitness is -0.239 ± 0.079.

Consider EQYVVVANYQKQESSEISLYVGQVVDIIEKNESGWWFVSTAEEQGWVPATCLEGQ [S20Y], for which the abundance fitness was -0.143 ± 0.11.

For the variant EQYVVVANYQKQESSEISLAVGQVVDIIEKNESGWWFVSTAEEQGWVPATCLEGQ [S20A], the abundance fitness was -0.13 ± 0.098.

Consider EQYVVVANYQKQESSEISLEVGQVVDIIEKNESGWWFVSTAEEQGWVPATCLEGQ [S20E], for which the abundance fitness is 0.09 ± 0.21.

With EQYVVVANYQKQESSEISLPVGQVVDIIEKNESGWWFVSTAEEQGWVPATCLEGQ [S20P], the abundance fitness is -0.536 ± 0.13.

Take EQYVVVANYQKQESSEISLFVGQVVDIIEKNESGWWFVSTAEEQGWVPATCLEGQ [S20F]: the abundance fitness is -0.085 ± 0.1.

On to EQYVVVANYQKQESSEISISVGQVVDIIEKNESGWWFVSTAEEQGWVPATCLEGQ [L19I], for which the abundance fitness is -0.149 ± 0.17.

For EQYVVVANYQKQESSEISFSVGQVVDIIEKNESGWWFVSTAEEQGWVPATCLEGQ [L19F], the abundance fitness is -0.441 ± 0.18.

Take EQYVVVANYQKQESSEISQSVGQVVDIIEKNESGWWFVSTAEEQGWVPATCLEGQ [L19Q]: the abundance fitness is -0.865 ± 0.16.

EQYVVVANYQKQESSEISKSVGQVVDIIEKNESGWWFVSTAEEQGWVPATCLEGQ [L19K]: the abundance fitness is -0.957 ± 0.14.

Take EQYVVVANYQKQESSEISYSVGQVVDIIEKNESGWWFVSTAEEQGWVPATCLEGQ [L19Y]: the abundance fitness is -0.665 ± 0.45.

For the variant EQYVVVANYQKQESSEISMSVGQVVDIIEKNESGWWFVSTAEEQGWVPATCLEGQ [L19M], the abundance fitness is -0.545 ± 0.15.

As to EQYVVVANYQKQESSEISGSVGQVVDIIEKNESGWWFVSTAEEQGWVPATCLEGQ [L19G], the abundance fitness is -0.838 ± 0.093.

For the variant EQYVVVANYQKQESSEISPSVGQVVDIIEKNESGWWFVSTAEEQGWVPATCLEGQ [L19P], the abundance fitness is -0.831 ± 0.11.

With EQYVVVANYQKQESSEISCSVGQVVDIIEKNESGWWFVSTAEEQGWVPATCLEGQ [L19C], the abundance fitness was -0.035 ± 0.13.

Consider EQYVVVANYQKQESSEISDSVGQVVDIIEKNESGWWFVSTAEEQGWVPATCLEGQ [L19D], for which the abundance fitness was -0.894 ± 0.28.

On to EQYVVVANYQKQESSEISESVGQVVDIIEKNESGWWFVSTAEEQGWVPATCLEGQ [L19E], for which the abundance fitness was -0.768 ± 0.15.

Consider EQYVVVANYQKQESSEISTSVGQVVDIIEKNESGWWFVSTAEEQGWVPATCLEGQ [L19T], for which the abundance fitness was -0.604 ± 0.089.

As for EQYVVVANYQKQESSEISNSVGQVVDIIEKNESGWWFVSTAEEQGWVPATCLEGQ [L19N], the abundance fitness is -0.966 ± 0.16.

On to EQYVVVANYQKQESSEISASVGQVVDIIEKNESGWWFVSTAEEQGWVPATCLEGQ [L19A], for which the abundance fitness is -0.482 ± 0.1.

For the variant EQYVVVANYQKQESSEISWSVGQVVDIIEKNESGWWFVSTAEEQGWVPATCLEGQ [L19W], the abundance fitness is -0.899 ± 0.11.

As to EQYVVVANYQKQESSEISLSEGQVVDIIEKNESGWWFVSTAEEQGWVPATCLEGQ [V21E], the abundance fitness turned out to be 0.096 ± 0.1.

Take EQYVVVANYQKQESSEISLSCGQVVDIIEKNESGWWFVSTAEEQGWVPATCLEGQ [V21C]: the abundance fitness was -0.025 ± 0.1.

For EQYVVVANYQKQESSEISLSGGQVVDIIEKNESGWWFVSTAEEQGWVPATCLEGQ [V21G], the abundance fitness was -0.453 ± 0.082.

Regarding EQYVVVANYQKQESSEISLSFGQVVDIIEKNESGWWFVSTAEEQGWVPATCLEGQ [V21F], the abundance fitness is -0.286 ± 0.099.

For EQYVVVANYQKQESSEISLSAGQVVDIIEKNESGWWFVSTAEEQGWVPATCLEGQ [V21A], the abundance fitness was -0.043 ± 0.097.

Take EQYVVVANYQKQESSEISLSDGQVVDIIEKNESGWWFVSTAEEQGWVPATCLEGQ [V21D]: the abundance fitness is -0.593 ± 0.12.

Consider EQYVVVANYQKQESREISLSVGQVVDIIEKNESGWWFVSTAEEQGWVPATCLEGQ [S15R], for which the abundance fitness was found to be 0.04 ± 0.073.

As for EQYVVVANYQKQESGEISLSVGQVVDIIEKNESGWWFVSTAEEQGWVPATCLEGQ [S15G], the abundance fitness was -0.073 ± 0.073.

Regarding EQYVVVANYQKQESQEISLSVGQVVDIIEKNESGWWFVSTAEEQGWVPATCLEGQ [S15Q], the abundance fitness stood at 0.103 ± 0.12.

As for EQYVVVANYQKQESAEISLSVGQVVDIIEKNESGWWFVSTAEEQGWVPATCLEGQ [S15A], the abundance fitness is -0.01 ± 0.085.

As to EQYVVVANYQKQESLEISLSVGQVVDIIEKNESGWWFVSTAEEQGWVPATCLEGQ [S15L], the abundance fitness is -0.27 ± 0.079.

Regarding EQYVVVANYQKQESDEISLSVGQVVDIIEKNESGWWFVSTAEEQGWVPATCLEGQ [S15D], the abundance fitness is 0.02 ± 0.15.

As to EQYVVVANYQKQESWEISLSVGQVVDIIEKNESGWWFVSTAEEQGWVPATCLEGQ [S15W], the abundance fitness was -0.049 ± 0.1.

The values are drawn from the Human Domainome abundance scans (Beltran et al. 2025).
